The data set deals with FUS(1-526)[P525L]-NLUC-FLAG (UniProt P35637 P35637:1-526, P525L). The experiment in a line: competition; competitive nanoBRET vs AF594-JB39; reported as KD (50% dissociation of BRET pair); table prints NLUC-HA, text NLUC-FLAG. To be noted: tags: C-terminal NLUC-FLAG; PURExpress. The method, then:
Competitive NanoBRET binding assays were performed with unlabeled oligonucleotides JB40, JB41, and JB42. First, the relative amount of purified protein per volume of bead suspension (based on nluc activity) was determined in 2× binding buffer (200 mM potassium acetate, 40 mM Tris pH 8.0, 2 mM EDTA, 0.02% NP-40, 6 μg/mL BSA, and 1:1000 Promega Nano-Glo luciferase substrate) using an eight-point dilution curve over ˜3.5 orders of magnitude. Alexafluor594-labeled JB39 was diluted into water in opaque white 96-well plates a single concentration, and varying concentrations of JB40, JB41, or JB42, spanning the pM to low μM range were added to a final total volume of 50 μL/well. 50 μL/well of 2× binding buffer containing 10⁶ RLU (relative luminescence units) beads/well was added and plates were shaken for 10 minutes at room temperature. Nanoluciferase activity and BRET were measured in a Glowmax Discover plate reader and KD values, shown in the table below, were calculated using GraphPad Prism.

Sequence of FUS(1-526)[P525L]-NLUC-FLAG (P35637 whole entry P525L, one chain of several): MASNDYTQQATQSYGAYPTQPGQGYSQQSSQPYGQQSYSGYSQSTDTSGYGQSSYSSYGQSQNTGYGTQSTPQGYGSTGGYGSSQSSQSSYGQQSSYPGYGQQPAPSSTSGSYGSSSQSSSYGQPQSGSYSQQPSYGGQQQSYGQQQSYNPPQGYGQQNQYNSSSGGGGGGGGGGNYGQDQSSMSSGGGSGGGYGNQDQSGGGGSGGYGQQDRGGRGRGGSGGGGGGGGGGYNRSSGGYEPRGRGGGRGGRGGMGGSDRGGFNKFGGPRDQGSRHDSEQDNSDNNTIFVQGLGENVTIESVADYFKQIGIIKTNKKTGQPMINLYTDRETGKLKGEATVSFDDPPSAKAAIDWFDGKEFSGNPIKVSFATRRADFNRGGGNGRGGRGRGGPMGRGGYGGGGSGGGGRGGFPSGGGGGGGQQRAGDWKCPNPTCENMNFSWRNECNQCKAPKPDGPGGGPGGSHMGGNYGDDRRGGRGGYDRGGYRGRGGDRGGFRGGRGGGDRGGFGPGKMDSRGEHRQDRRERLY

Consider CUGCUAGCCUCUGGAUUUGA (ssRNA, full PS) [JB42 (RNA, phosphorothioate)], for which the 50% inhibitory concentration (IC50) (as a rule, the concentration at which inhibition is half-maximal) worked out at 7.2 nM.
The figure for CTGCTAGCCTCTGGATTTGA (ssDNA, full PS) [JB41 (DNA, phosphorothioate)] is 0.4 nM.

The values above are taken from patent publication US20200239888, “COMPOSITIONS AND METHODS FOR MODULATION OF PROTEIN AGGREGATION” (Ionis Pharmaceuticals, Inc., published 2020).
